B2: HaloTag (HT) alone (enzyme, Rhodococcus rhodochrous, UniProt P0A3G2 1-293, looked up)
chain: MSEIGTGFPFDPHYVEVLGERMHYVDVGPRDGTPVLFLHGNPTSSYLWRNIIPHVAPSHRCIAPDLIGMGKSDKPDLDYFFDDHVRYLDAFIEALGLEEVVLVIHDWGSALGFHWAKRNPERVKGIACMEFIRPIPTWDEWPEFARETFQAFRTADVGRELIIDQNAFIEGALPMGVVRPLTEVEMDHYREPFLKPVDREPLWRFPNELPIAGEPANIVALVEAYMNWLHQSPVPKLLFWGTPGVLIPPAEAARLAESLPNCKTVDIGPGLFLLQEDNPDLIGSEIARWLPAL
notes: Control bait without a fused partner, covalently captured on HaloLink resin; also called mutant dehalogenase protein

Key:
[1] = molecular target: B2; experiment: HaloLink resin pull-down, lane 1: HT alone as bait, 2 uM rapamycin, no DTTSP; release of fluorescent prey read on gel; text: showed no background binding of Prey
Experimental: Remove final wash solution and add protein-protein crosslinked material to resin. Incubate at 22° C. for one hour. Wash resin 5×1 mL with 1×TBS+0.05% IGEPAL as described above. Remove final wash. At this point, the crosslinked protein-protein complex has been covalently captured and purified on the resin and can be resuspended in the desired buffer. In samples treated with the crosslinker DTTSP, resupend resin in 1×SDS Loading buffer containing 5 mM β-Me and boil at 95° C. for 5 minutes to reverse the protein-protein crosslinks. Analyse samples using SDS gel electrophoresis.

[2] = molecular target: T1, GST-cFos (UniProt P01100 1-380, fluorescently labeled using Lys-tRNA with FluoroTect Green (labelled lysines, positions not stated)); experiment: HaloLink resin pull-down, lane 3: HT alone as bait, no crosslinker; release of fluorescent prey read on gel
T1 construct: N-terminal GST fusion expressed in rabbit reticulocyte lysate; also called Prey; not shown: GST, N-terminal fusion partner encoded by Flexi vector pFN2A (Promega)
T1 sequence (P01100 whole entry, the tested form may be a part): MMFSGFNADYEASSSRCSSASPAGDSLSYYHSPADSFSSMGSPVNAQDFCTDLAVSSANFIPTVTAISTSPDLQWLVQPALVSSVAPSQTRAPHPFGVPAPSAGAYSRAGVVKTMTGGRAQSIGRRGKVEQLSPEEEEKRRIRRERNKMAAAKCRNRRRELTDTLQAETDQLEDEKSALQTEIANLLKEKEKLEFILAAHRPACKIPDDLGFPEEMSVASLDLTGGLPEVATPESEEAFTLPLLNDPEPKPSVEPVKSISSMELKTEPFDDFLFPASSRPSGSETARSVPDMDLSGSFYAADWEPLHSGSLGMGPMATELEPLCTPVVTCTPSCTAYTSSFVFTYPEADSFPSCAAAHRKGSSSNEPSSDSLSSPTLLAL

B1: GST-Frb (other)
chain: ILWHEMWHEGLEEASRLYFGERNVKGMFEVLEPLHAMMERGPQTLKETSFNQAYGRDLMEAQEWCRKYMKSGNVKDLTQAWDLYYHVFRRISK
modifications: fluorescently labeled using Lys-tRNA with FluoroTect Green (labelled lysines, positions not stated)
notes: domain: Frb domain of Frap; N-terminal GST fusion expressed in rabbit reticulocyte lysate; linker not described; also called Prey; Frb domain of Frap; not shown: GST, N-terminal fusion partner encoded by Flexi vector pFN2A (Promega)
B1: no binding [1].

B2: no binding [2].

Source: patent US20070224620A1 (PROMEGA, published 2007)
